Measured values reported in PMC3236591, “Central domain deletions affect the SAXS solution structure and function of Yeast Hsp40 proteins Sis1 and Ydj1” (BMC Structural Biology, 2011).

Experiments:
[1] = target: the molecule itself; assay: SAXS; 2.75 to 7.1 mg/mL protein in 25 mM Tris-HCl pH 7.5, 500 mM NaCl; molecular mass from I(0) against a BSA standard
heated luciferase = target: T1, heated luciferase (UniProt P08659 1-550 = luciferase); assay: not stated; binding of Hsp40s to heated denatured luciferase as previously described (refs 15, 21); Sis1 binding set as standard (100%)
T1 construct: luciferase, heat-denatured, used as client protein; Heat-denatured in the assay; Firefly luciferase is surmised; also called heated denaturated luciferase; denatured luciferase
T1 sequence (P08659 whole entry): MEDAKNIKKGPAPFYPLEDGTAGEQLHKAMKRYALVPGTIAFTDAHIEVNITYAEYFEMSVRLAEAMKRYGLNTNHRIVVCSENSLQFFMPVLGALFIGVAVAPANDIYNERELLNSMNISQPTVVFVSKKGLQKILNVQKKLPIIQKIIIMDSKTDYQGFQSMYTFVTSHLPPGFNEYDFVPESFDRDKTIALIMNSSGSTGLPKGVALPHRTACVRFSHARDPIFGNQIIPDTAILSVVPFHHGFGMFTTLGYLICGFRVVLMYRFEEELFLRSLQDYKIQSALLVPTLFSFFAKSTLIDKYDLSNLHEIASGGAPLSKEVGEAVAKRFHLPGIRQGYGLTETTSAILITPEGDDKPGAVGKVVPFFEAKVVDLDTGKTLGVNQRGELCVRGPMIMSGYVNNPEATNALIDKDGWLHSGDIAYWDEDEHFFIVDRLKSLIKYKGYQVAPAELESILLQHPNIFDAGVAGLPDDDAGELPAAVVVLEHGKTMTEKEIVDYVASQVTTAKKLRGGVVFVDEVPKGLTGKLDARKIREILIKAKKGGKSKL

percent of Sis1 binding to heated luciferase (heated luciferase) [%]	Binder	stoichiometry N [1]
~40	Sis1_Δ121-257 (natural protein, yeast, UniProt P25294 1-352, looked up, Sis1, yeast Type II Hsp40 (352 residues), residues 121 to 257 (G/M and CTDI) deleted; also called Sis1 G/M plus CTDI deletion mutant; source: E. coli BL21(DE3)pLys, purified (Macro-prep High S cation exchange, hydroxyapatite)) MVKETKLYDLLGVSPSANEQELKKGYRKAALKYHPDKPTGDTEKFKEISEAFEILNDPQKREIYDQYGLEAARSGGPSFGPGGPGGAGGAGGFPGGAGGFSGGHAFSNEDAFNIFSQFFGHPNFKRDGDDLIYTLPLSFKESLLGFSKTIQTIDGRTLPLSRVQPVQPSQTSTYPGQGMPTPKNPSQRGNLIVKYKVDYPISLNDAQKRAIDENF	2
~40	Ydj1_Δ106-255 (natural protein, Ydj1, yeast Type I Hsp40 (409 residues), residues 106 to 255 (ZFLR and CTDI) deleted; also called Ydj1 ZFLR plus CTDI deletion mutant; source: E. coli BL21(DE3), purified (Macro-prep High Q anion exchange, hydroxyapatite, Superdex 200 SEC)) not shown	2
	Sis1 (natural protein, yeast, UniProt P25294 1-352, looked up, Sis1, yeast Type II Hsp40, 352 residues (J-domain, G/F, G/M, CTDI, CTDII); also called Type II Hsp40; full length Sis1 protein; source: recombinant, purified (Macro-prep High S cation exchange, hydroxyapatite)) MVKETKLYDLLGVSPSANEQELKKGYRKAALKYHPDKPTGDTEKFKEISEAFEILNDPQKREIYDQYGLEAARSGGPSFGPGGPGGAGGAGGFPGGAGGFSGGHAFSNEDAFNIFSQFFGGSSPFGGADDSGFSFSSYPSGGGAGMGGMPGGMGGMHGGMGGMPGGFRSASSSPTYPEEETVQVNLPVSLEDLFVGKKKSFKIGRKGPHGASEKTQIDIQLKPGWKAGTKITYKNQGDYNPQTGRRKTLQFVIQEKSHPNFKRDGDDLIYTLPLSFKESLLGFSKTIQTIDGRTLPLSRVQPVQPSQTSTYPGQGMPTPKNPSQRGNLIVKYKVDYPISLNDAQKRAIDENF	2
~60	Sis1_Δ124-174 (natural protein, yeast, UniProt P25294 1-352, looked up, Sis1, yeast Type II Hsp40 (352 residues), residues 124 to 174 (G/M region) deleted; also called Sis1 G/M deletion mutant; source: E. coli BL21(DE3)pLys, purified (Macro-prep High S cation exchange, hydroxyapatite)) MVKETKLYDLLGVSPSANEQELKKGYRKAALKYHPDKPTGDTEKFKEISEAFEILNDPQKREIYDQYGLEAARSGGPSFGPGGPGGAGGAGGFPGGAGGFSGGHAFSNEDAFNIFSQFFGGSSTYPEEETVQVNLPVSLEDLFVGKKKSFKIGRKGPHGASEKTQIDIQLKPGWKAGTKITYKNQGDYNPQTGRRKTLQFVIQEKSHPNFKRDGDDLIYTLPLSFKESLLGFSKTIQTIDGRTLPLSRVQPVQPSQTSTYPGQGMPTPKNPSQRGNLIVKYKVDYPISLNDAQKRAIDENF	2
